Measured values: paper PMC11987601
“And” between values parts separate entries of the source, which are not always exact repeats. Equal entries are not always repeated.

Key:
[1] = molecular target: His6-SeFtsZ (Spiroplasma eriocheiris FtsZ) (Spiroplasma eriocheiris)
[2] = molecular target: His6-SeSepF (Spiroplasma eriocheiris SepF) (Spiroplasma eriocheiris); test: BLI; as a1, in the presence of GTP
[3] = molecular target: His6-SeSepF (Spiroplasma eriocheiris SepF) (Spiroplasma eriocheiris); test: BLI; His6-SeSepF immobilised on Ni-NTA biosensor tips (10 ug/ml), SeFtsZ or SeFtsZ L272E as analyte (0-100 ug/ml); Octet N1; 50 mM Tris-HCl pH 7.4, 100 mM KCl, 10 mM MgCl2, 0.02% Tween-20; no nucleotide (apo)

His6-SeSepF (Spiroplasma eriocheiris SepF) (Spiroplasma eriocheiris), sequence (partner, as listed by the source): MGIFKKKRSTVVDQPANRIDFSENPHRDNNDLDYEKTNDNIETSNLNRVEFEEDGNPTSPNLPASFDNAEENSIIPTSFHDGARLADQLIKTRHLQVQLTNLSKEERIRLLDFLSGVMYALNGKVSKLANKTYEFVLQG

Row | Substance | SeFtsZ retrieved from the pellet fraction with GTP after mixing with SeSepF (sedimentation assay of polymerization; 16% without SeSepF) [1] | Kd [2] | Kd [3]
1 | His6-SeSepF (Spiroplasma eriocheiris SepF) (natural protein) | 28% | – | –
2 | SeFtsZ L272E mutant (from UniProt A0A0H3XMR3 1-411) (natural protein) | – | 700 nM | 980 nM
3 | Spiroplasma eriocheiris FtsZ, His-tag removed (from UniProt A0A0H3XMR3 1-411) (natural protein) | – | 53900 nM | 1040 nM and 1130 nM
